From publication PMC8464517

Molecular target: T1, GLUT1 (Homo sapiens), P11166
T1 chain: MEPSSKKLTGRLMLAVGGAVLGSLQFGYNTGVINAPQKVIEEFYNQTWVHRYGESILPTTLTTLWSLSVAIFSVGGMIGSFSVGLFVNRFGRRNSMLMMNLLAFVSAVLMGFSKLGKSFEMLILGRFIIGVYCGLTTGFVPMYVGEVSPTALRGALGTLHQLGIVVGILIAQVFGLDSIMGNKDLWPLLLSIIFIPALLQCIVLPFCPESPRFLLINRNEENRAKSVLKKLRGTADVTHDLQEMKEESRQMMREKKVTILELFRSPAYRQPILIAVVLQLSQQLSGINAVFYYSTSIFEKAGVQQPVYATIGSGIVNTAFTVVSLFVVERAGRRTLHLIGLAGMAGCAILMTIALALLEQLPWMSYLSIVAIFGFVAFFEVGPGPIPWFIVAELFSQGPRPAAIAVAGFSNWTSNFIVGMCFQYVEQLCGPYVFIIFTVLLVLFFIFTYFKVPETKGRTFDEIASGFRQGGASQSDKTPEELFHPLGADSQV
Experiment: ITC
Settings: PIP2/MSP1E3 nanodisc; remark: other sources report otherwise

B1: TXNIP, Q9H3M7 (protein)
chain: MVMFKKIKSFEVVFNDPEKVYGSGEKVAGRVIVEVCEVTRVKAVRILACGVAKVLWMQGSQQCKQTSEYLRYEDTLLLEDQPTGENEMVIMRPGNKYEYKFGFELPQGPLGTSFKGKYGCVDYWVKAFLDRPSQPTQETKKNFEVVDLVDVNTPDLMAPVSAKKEKKVSCMFIPDGRVSVSARIDRKGFCEGDEISIHADFENTCSRIVVPKAAIVARHTYLANGQTKVLTQKLSSVRGNHIISGTCASWRGKSLRVQKIRPSILGCNILRVEYSLLIYVSVPGSKKVILDLPLVIGSRSGLSSRTSSMASRTSSEMSWVDLNIPDTPEAPPCYMDVIPEDHRLESPTTPLLDDMDGSQDSPIFMYAPEFKFMPPPTYTEVDPCILNNNVQ
B1 was tested, and the Kd was 3.8 µM.
